{"source": "paper PMC8809517", "about": "“Cofactor-independent RNA editing by a synthetic S-type PPR protein”", "experiment_in_all_cases": "high-throughput RNA pulldown from lysate on Ni-NTA beads; HRP: 50 mM Tris pH 8, 150 mM NaCl, 1 mM beta-mercaptoethanol, 50 ug/ml BSA, 3 ug/ml yeast RNA, 0.5% heparin; ITC and FP: Tris pH 8, 200 mM KCl, 5% glycerol; MST: 50 mM Tris pH 8, 200 mM NaCl, 1 mM DTT, BSA, heparin, 0.05% Tween 20", "conditions_in_all_cases": "tags: N-terminal His-eGFP", "key": {"[1]": {"biological_target": "T1, GFP-9S library array, motif 4 ND N98V;D124I (synthetic construct, N98V;D124I)", "T1 chain": "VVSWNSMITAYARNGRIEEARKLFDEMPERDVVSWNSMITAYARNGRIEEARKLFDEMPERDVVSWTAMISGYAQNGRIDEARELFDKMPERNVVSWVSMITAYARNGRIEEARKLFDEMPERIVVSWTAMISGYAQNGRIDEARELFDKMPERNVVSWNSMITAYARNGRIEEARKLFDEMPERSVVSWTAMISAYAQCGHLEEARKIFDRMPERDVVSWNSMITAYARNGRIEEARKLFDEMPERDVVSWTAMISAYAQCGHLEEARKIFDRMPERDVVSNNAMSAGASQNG"}, "[2]": {"biological_target": "T2, GFP-9S library array, motif 4 ND N98L;D124P (synthetic construct, N98L;D124P)", "T2 chain": "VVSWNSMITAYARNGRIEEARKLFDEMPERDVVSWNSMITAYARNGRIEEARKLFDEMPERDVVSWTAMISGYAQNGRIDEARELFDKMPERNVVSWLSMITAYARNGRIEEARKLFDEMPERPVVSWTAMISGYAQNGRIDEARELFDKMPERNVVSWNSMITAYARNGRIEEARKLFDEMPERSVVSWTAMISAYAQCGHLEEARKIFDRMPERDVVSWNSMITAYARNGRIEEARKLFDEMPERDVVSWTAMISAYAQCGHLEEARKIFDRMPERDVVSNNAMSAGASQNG"}, "[3]": {"biological_target": "T3, GFP-9S library array, motif 4 ND N98E;D124P (synthetic construct, N98E;D124P)", "T3 chain": "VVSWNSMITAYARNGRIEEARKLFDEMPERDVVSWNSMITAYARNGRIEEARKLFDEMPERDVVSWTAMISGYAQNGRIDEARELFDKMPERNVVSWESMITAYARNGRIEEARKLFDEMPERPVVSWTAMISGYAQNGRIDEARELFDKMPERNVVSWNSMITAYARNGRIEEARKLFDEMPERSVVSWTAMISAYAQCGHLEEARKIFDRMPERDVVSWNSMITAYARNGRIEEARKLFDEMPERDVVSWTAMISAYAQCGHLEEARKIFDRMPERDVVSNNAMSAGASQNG"}, "[4]": {"biological_target": "T4, GFP-9S library array, motif 4 ND N98A;D124L (synthetic construct, N98A;D124L)", "T4 chain": "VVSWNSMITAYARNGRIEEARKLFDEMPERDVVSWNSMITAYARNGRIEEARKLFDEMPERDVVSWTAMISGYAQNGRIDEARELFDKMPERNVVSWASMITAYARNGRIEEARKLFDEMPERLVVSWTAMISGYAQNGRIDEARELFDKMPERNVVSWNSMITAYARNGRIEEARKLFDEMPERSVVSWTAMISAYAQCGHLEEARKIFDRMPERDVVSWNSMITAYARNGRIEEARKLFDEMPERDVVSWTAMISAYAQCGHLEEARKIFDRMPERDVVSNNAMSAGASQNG"}, "[5]": {"biological_target": "T5, GFP-9S library array, motif 4 ND N98M;D124H (synthetic construct, N98M;D124H)", "T5 chain": "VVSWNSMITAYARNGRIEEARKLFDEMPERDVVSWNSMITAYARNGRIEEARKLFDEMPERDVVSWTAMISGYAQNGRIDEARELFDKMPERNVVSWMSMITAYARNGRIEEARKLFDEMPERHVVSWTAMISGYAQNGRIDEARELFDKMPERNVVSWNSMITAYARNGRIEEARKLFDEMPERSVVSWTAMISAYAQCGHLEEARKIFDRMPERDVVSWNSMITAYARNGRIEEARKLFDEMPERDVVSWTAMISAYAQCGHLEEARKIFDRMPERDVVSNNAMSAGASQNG"}}, "data": [{"binder": "AUUAAACGUGA (ssRNA)", "note": "[IR-rpoA-A]", "values": [{"measurement": "Kd", "setting": "[1]; label: 5' IRDye 800CW", "result": 384, "unit": "nM"}, {"measurement": "Kd", "setting": "[2]; label: 5' IRDye 800CW", "result": 213, "unit": "nM"}, {"measurement": "Kd", "setting": "[3]; label: 5' IRDye 800CW", "result": 264, "unit": "nM"}, {"measurement": "Kd", "setting": "[4]; label: 5' IRDye 800CW", "result": 272, "unit": "nM"}, {"measurement": "Kd", "setting": "[5]; label: 5' IRDye 800CW", "result": 574, "unit": "nM"}]}, {"binder": "AUUACACGUGA (ssRNA)", "note": "[Cy5-rpoA]", "values": [{"measurement": "Kd", "setting": "[1]; label: 5' Cy5", "result": 121, "unit": "nM"}, {"measurement": "Kd", "setting": "[2]; label: 5' Cy5", "result": 97.7, "unit": "nM"}, {"measurement": "Kd", "setting": "[3]; label: 5' Cy5", "result": 130, "unit": "nM"}, {"measurement": "Kd", "setting": "[4]; label: 5' Cy5", "result": 129, "unit": "nM"}, {"measurement": "Kd", "setting": "[5]; label: 5' Cy5", "result": 242, "unit": "nM"}]}, {"binder": "AUUAGACGUGA (ssRNA)", "note": "[Cy5-rpoA-G]", "values": [{"measurement": "Kd", "setting": "[1]; label: 5' Cy5", "result": 163, "unit": "nM"}, {"measurement": "Kd", "setting": "[2]; label: 5' Cy5", "result": 114, "unit": "nM"}, {"measurement": "Kd", "setting": "[3]; label: 5' Cy5", "result": 102, "unit": "nM"}, {"measurement": "Kd", "setting": "[4]; label: 5' Cy5", "result": 134, "unit": "nM"}, {"measurement": "Kd", "setting": "[5]; label: 5' Cy5", "result": 257, "unit": "nM"}]}, {"binder": "AUUAUACGUGA (ssRNA)", "note": "[IR-rpoA-U]", "values": [{"measurement": "Kd", "setting": "[1]; label: 5' IRDye 800CW", "result": 205, "unit": "nM"}, {"measurement": "Kd", "setting": "[2]; label: 5' IRDye 800CW", "result": 145, "unit": "nM"}, {"measurement": "Kd", "setting": "[3]; label: 5' IRDye 800CW", "result": 271, "unit": "nM"}, {"measurement": "Kd", "setting": "[4]; label: 5' IRDye 800CW", "result": 255, "unit": "nM"}, {"measurement": "Kd", "setting": "[5]; label: 5' IRDye 800CW", "result": 412, "unit": "nM"}]}]}
